This passage reports mitochondrial ROS (MitoSox staining) in brain slices, Tg mAPP/CypD-/- versus Tg mAPP mice results from patent US20100291074A1, “CYCLOPHILIN D-AMYLOID BETA INTERACTION POTENTIATES MITOCHONDRIAL DYSFUNCTION IN A TRANSGENIC MOUSE MODEL OF ALZHEIMER'S DISEASE” (COLUMBIA UNIVERSITY IN THE CITY OF NEW YORK, priority 2007, published 2010).

In this assay the target is Aβ (amyloid beta peptide, length and aggregation state not specified; ˜4 kDa band) (UniProt P05067). The experiment in a line: cell-based or functional assay.

In turn, “mouse CypD, endogenous, in brain mitochondria and cultured cortical neurons of nonTg and Tg mAPP mice (from UniProt Q99KR7 30-206) (enzyme)” came in with a mitochondrial ROS (MitoSox staining) in brain slices, Tg mAPP/CypD-/- versus Tg mAPP mice of 80%.
